T1: GST-Ufd2 (yeast (Saccharomyces cerevisiae), UniProt P54860 1-961)
T1 construct: Ufd2, E4 ubiquitin ligase, yeast, cloned in pGEX6P-1; Cloned in pGEX6P-1; source: E. coli BL21, purified (glutathione-sepharose)
T1 sequence (looked up): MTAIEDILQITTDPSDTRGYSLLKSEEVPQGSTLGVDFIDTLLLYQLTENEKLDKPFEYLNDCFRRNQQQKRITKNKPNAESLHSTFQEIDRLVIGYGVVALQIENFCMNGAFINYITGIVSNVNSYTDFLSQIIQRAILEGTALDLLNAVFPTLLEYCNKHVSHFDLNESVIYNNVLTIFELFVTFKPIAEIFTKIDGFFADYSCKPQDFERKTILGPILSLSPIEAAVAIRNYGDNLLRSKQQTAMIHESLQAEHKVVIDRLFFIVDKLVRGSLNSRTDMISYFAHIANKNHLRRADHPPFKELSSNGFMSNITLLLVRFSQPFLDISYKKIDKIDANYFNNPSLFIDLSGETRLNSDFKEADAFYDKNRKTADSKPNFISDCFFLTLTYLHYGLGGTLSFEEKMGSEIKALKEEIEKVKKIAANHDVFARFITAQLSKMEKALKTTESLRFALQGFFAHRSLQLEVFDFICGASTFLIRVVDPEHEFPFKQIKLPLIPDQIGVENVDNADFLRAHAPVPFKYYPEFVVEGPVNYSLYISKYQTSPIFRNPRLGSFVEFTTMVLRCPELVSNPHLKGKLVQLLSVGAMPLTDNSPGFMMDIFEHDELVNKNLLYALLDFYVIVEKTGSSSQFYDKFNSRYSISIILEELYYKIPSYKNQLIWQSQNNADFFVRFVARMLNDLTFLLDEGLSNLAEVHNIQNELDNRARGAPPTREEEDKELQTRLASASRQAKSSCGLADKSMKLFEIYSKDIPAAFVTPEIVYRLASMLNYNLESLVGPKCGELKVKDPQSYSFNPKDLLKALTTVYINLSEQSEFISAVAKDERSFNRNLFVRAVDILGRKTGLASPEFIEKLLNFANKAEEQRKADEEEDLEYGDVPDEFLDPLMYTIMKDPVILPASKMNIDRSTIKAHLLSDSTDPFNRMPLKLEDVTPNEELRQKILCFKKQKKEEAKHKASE


Molecular target: T1, GST-Ufd2
Assay: pull-down; GST-Ufd2 (40 pmol) incubated with 20 pmol Cdc48 in 100 µL 20 mM Tris-HCl pH 7.4, 50 mM NaCl, 1 mM MgCl2, 5 mM β-mercaptoethanol, 20% glycerol, 10 min at 25 °C; then glutathione-sepharose 4B 30 min at room temperature; eluted with glutathione; immunoblot with anti-Cdc48 and anti-GST
Details: both partners purified

binding result | Binder
binds | wild-type Cdc48 (N-terminally His-tagged) (natural protein, Saccharomyces cerevisiae, UniProt P25694 1-835, looked up, Cdc48, Saccharomyces cerevisiae, wild type, cloned in pET15b; Cloned in pET15b; also called WT; yeast Cdc48) MGEEHKPLLDASGVDPREEDKTATAILRRKKKDNMLLVDDAINDDNSVIAINSNTMDKLELFRGDTVLVKGKKRKDTVLIVLIDDELEDGACRINRVVRNNLRIRLGDLVTIHPCPDIKYATRISVLPIADTIEGITGNLFDVFLKPYFVEAYRPVRKGDHFVVRGGMRQVEFKVVDVEPEEYAVVAQDTIIHWEGEPINREDEENNMNEVGYDDIGGCRKQMAQIREMVELPLRHPQLFKAIGIKPPRGVLMYGPPGTGKTLMARAVANETGAFFFLINGPEVMSKMAGESESNLRKAFEEAEKNAPAIIFIDEIDSIAPKRDKTNGEVERRVVSQLLTLMDGMKARSNVVVIAATNRPNSIDPALRRFGRFDREVDIGIPDATGRLEVLRIHTKNMKLADDVDLEALAAETHGYVGADIASLCSEAAMQQIREKMDLIDLDEDEIDAEVLDSLGVTMDNFRFALGNSNPSALRETVVESVNVTWDDVGGLDEIKEELKETVEYPVLHPDQYTKFGLSPSKGVLFYGPPGTGKTLLAKAVATEVSANFISVKGPELLSMWYGESESNIRDIFDKARAAAPTVVFLDELDSIAKARGGSLGDAGGASDRVVNQLLTEMDGMNAKKNVFVIGATNRPDQIDPAILRPGRLDQLIYVPLPDENARLSILNAQLRKTPLEPGLELTAIAKATQGFSGADLLYIVQRAAKYAIKDSIEAHRQHEAEKEVKVEGEDVEMTDEGAKAEQEPEVDPVPYITKEHFAEAMKTAKRSVSDAELRRYEAYSQQMKASRGQFSNFNFNDAPLGTTATDNANSNNSAPSGAGAAFGSNAEEDDDLYS
binds | Cdc48 M288Y mutant (N-terminally His-tagged) (natural protein, Saccharomyces cerevisiae, UniProt P25694 1-835, looked up, Cdc48, Saccharomyces cerevisiae, with M288Y in the D1 pore loop, cloned in pET15b; Cloned in pET15b) MGEEHKPLLDASGVDPREEDKTATAILRRKKKDNMLLVDDAINDDNSVIAINSNTMDKLELFRGDTVLVKGKKRKDTVLIVLIDDELEDGACRINRVVRNNLRIRLGDLVTIHPCPDIKYATRISVLPIADTIEGITGNLFDVFLKPYFVEAYRPVRKGDHFVVRGGMRQVEFKVVDVEPEEYAVVAQDTIIHWEGEPINREDEENNMNEVGYDDIGGCRKQMAQIREMVELPLRHPQLFKAIGIKPPRGVLMYGPPGTGKTLMARAVANETGAFFFLINGPEVMSKYAGESESNLRKAFEEAEKNAPAIIFIDEIDSIAPKRDKTNGEVERRVVSQLLTLMDGMKARSNVVVIAATNRPNSIDPALRRFGRFDREVDIGIPDATGRLEVLRIHTKNMKLADDVDLEALAAETHGYVGADIASLCSEAAMQQIREKMDLIDLDEDEIDAEVLDSLGVTMDNFRFALGNSNPSALRETVVESVNVTWDDVGGLDEIKEELKETVEYPVLHPDQYTKFGLSPSKGVLFYGPPGTGKTLLAKAVATEVSANFISVKGPELLSMWYGESESNIRDIFDKARAAAPTVVFLDELDSIAKARGGSLGDAGGASDRVVNQLLTEMDGMNAKKNVFVIGATNRPDQIDPAILRPGRLDQLIYVPLPDENARLSILNAQLRKTPLEPGLELTAIAKATQGFSGADLLYIVQRAAKYAIKDSIEAHRQHEAEKEVKVEGEDVEMTDEGAKAEQEPEVDPVPYITKEHFAEAMKTAKRSVSDAELRRYEAYSQQMKASRGQFSNFNFNDAPLGTTATDNANSNNSAPSGAGAAFGSNAEEDDDLYS

From PMC5511170, “Deviation of the typical AAA substrate-threading pore prevents fatal protein degradation in yeast Cdc48” (Scientific Reports, 2017)
